This is an account of results in PMC9542875.

The stoichiometry N is the number of molecules, sites or subunits per partner or assembly.

Assay [1] has as its target allophycocyanin αβ dimer (purified APC, Sigma-Aldrich A7472) (UniProt P72504). In words: native MS; purified APC, 1 μM hexamer (6 μM bilin); 100 mM ammonium acetate; without metal ions and with Ag+, Cu2+, Fe2+/3+ or Zn2+ (oligomeric equilibrium unchanged on a short timescale; prolonged exposure to Cu2+ gives dissociation towards the dimer).
For assay [2], the target named is phycocyanin αβ dimer (Arthrospira maxima CCAP 1475/9) (Arthrospira maxima (CCAP 1475/9)). In words: native MS; purified PC (24 μM bilin) with Ag+ at 0.25 and 0.5 bilin equivalents; 100 mM ammonium acetate.
Assay [3] shares this target. As to the kind of experiment: native MS; purified PC without metal ions, 1 μM hexamer (Fig. 1D); 100 mM ammonium acetate pH 6.8; nano-electrospray, Orbitrap; hexamer to αβ dimers.

For the substance “allophycocyanin αβ dimer (purified APC, Sigma-Aldrich A7472) (from UniProt P72504 1-161; P72505 1-161) (complex)”, in assay [1], the stoichiometry N came out at 3.
On to “phycocyanin αβ dimer (Arthrospira maxima CCAP 1475/9) (from UniProt P72509 1-162; P72508 1-172) (complex)”, for which the stoichiometry N in assay [2] was found to be 2; in assay [3] it was 3.
